“Also recorded” adds a separate entry of the source. Ends that are not written are not given here. * marks the point of attachment. Biotin = O=C1N[C@H]2[C@H](CS[C@H]2CCCCC(=O)*)N1
Tests used:
APC/C^Cdc20 = target: T1, APC/C^Cdc20 (Saccharomyces cerevisiae, UniProt P16522+P53886); assay: biochemical; format: biochemical; conditions: for inhibition of APC/C^Cdc20 activity (in words): 220 μM peptide, time course 0-60 minutes, vs buffer only, n = 3
T1 construct: constructed within full-length Cdc20 by site-directed mutagenesis for analysis in vitro in the APC/C^Cdc20 assay; The APC/C was purified for enzyme assays from 1 mL of TAP-tagged Cdc16 yeast extract (SCSY51); made in house; host or cells: Cdc20: in vitro transcription/translation in rabbit reticulocyte lysate, used unpurified; APC/C: S. cerevisiae strain SCSY51 (Cdc16-TAP) extract, captured on IgG magnetic beads
Outline: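 Bead-bound TAP-Cdc16 yeast APC/C was mixed with IVT-made Cdc20 or Cdh1, pre-incubated 1 h at rt with checkpoint proteins or inhibitor peptides, plus pre-charged E1/E2/ATP/ubiquitin and ^35S-Pds1 in 20 mM HEPES pH 8.0, 100 mM NaCl, 1 mM MgCl2. Time points were stopped in SDS buffer and resolved by SDS-PAGE.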

[1] = system: APC/C - co-factor Cdc20 interaction; assay: Co-factor Cdc20 binding to APC/C (35S-Cdc20, APC/C on IgG beads); design: species or system Saccharomyces cerevisiae; conditions: 220 μM peptide, 1 hour, n = 3, vs buffer only
Protocol: (§1) One potential mechanism by which Cdc20-derived peptides and Tyc1 inhibit APC/C may be by blocking and/or disrupting the association between the co-factors Cdc20 and Cdh1 and the APC/C holo-enzyme. To test this hypothesis we produced radio-labeled full-length Cdc20 and Cdh1 co-factors by IVT/T and then incubated them with 220 μM Tyc1, DQ36 or PQ65 and APC/C that had been isolated from mitotic yeast extracts on IgG beads. Unbound peptide was washed away, and the amount of the remaining APC/C bound Cdc20 or Cdh1 was quantified. […] These observations indicate that Tyc1 and Mad2-binding motif peptides inhibit APC/C via a similar mechanism, leading to the disruption of the co-factor-APC/C interaction. This similar mechanism of action predicts that co-ever expression of Tyc1 and a Mad2-binding motif peptide in vivo would likely increase a cell’s sensitivity to microtubule poison.
(§2) Fig 14 Mad2-binding motif peptides and Tyc1 disrupt co-factor binding to APC/C and display an additive phenotype for microtubule poison sensitivity when co-ever expressed. A) ^35S-Methionine radio-labeled full-length Cdc20 or Cdh1 were made by IVT/T and pre-incubated with buffer only as a control, or Tyc1, DQ36 or PQ65 at a final concentration of 220 μM. […] The amount of APC/C-bound co-factor was measured by phosphor-imaging (n = 3). […]

[2] = system: APC/C - co-factor Cdh1 interaction; assay: Co-factor Cdh1 binding to APC/C (35S-Cdh1, APC/C on IgG beads); design: species or system Saccharomyces cerevisiae; conditions: 220 μM peptide, 1 hour, n = 3, vs buffer only
Protocol: as §1, §2

Molecule | inhibition of APC/C^Cdc20 activity (in words) (APC/C^Cdc20; 35S-Pds1 substrate) | overall APC/C inhibition (in words) (APC/C^Cdc20; discussion/conclusion statement) | IC50 (APC/C^Cdc20; peptide titration dilution series, 35S-Pds1 substrate, estimated/approximate, read-out: IC50) | amount of APC/C bound co-factor Cdc20 (in words) [1] | amount of APC/C bound co-factor Cdh1 (in words) [2]
DQ36-mut1: DQ36-mut1 where all 5 RILQY residues were changed to alanine AAAAA (Biotin-DMNKAAAAAMPEPPKCSSLRQKSYIMKKRTHYSYQQ) | The RILQY residues of the yeast KILR-motif were observed to be essential for full inhibition | – | – | – | –
PQ65: 65 amino acid residue peptide called PQ65 (Cdc20 169–232) (peptide, UniProt P26309 169-232, looked up, fragment) PPNASPISHLRAQTKIVFKQNVAEACGLDMNKRILQYMPEPPKCSSLRQKSYIMKKRTHYSYQQ | sufficient to inhibit APC/C^Cdc20 activity; also recorded: A significant level of APC/C^Cdc20 inhibition was observed | displayed the highest level of APC/C inhibition in vitro | < 50 µM | caused a significant decrease in the amount of APC/C bound co-factor Cdc20 and Cdh1 | caused a significant decrease in the amount of APC/C bound co-factor Cdc20 and Cdh1
